{"source": "paper PMC2806950", "about": "“Dissection of the DNA Mimicry of the Bacteriophage T7 Ocr Protein using Chemical Modification” (Journal of Molecular Biology, 2009)", "binders": {"B1": {"name": "Ocr (overcome classical restriction) protein of bacteriophage T7, unmodified (natural protein, UniProt P03775 1-117, looked up)", "chain": "MAMSNMTYNNVFDHAYEMLKENIRYDDIRDTDDLHDAIHMAADNAVPHYYADIFSVMASEGIDLEFEDSGLMPDTKDVIRILQARIYEQLTIDLWEDAEDLLNEYLEEVEEYEEDEE", "notes": "Ocr, product of gene 0.3 of bacteriophage T7; 116-amino-acid monomer as printed; Homodimer; also called WT; wild type Ocr; source: plasmid pAR2993 with the gene encoding WT Ocr"}}, "details_in_all_cases": "both partners purified", "key": {"[1]": {"target": "T1, M.EcoKI, DNA methyltransferase component (M2S1) of the EcoKI type I R/M system (E. coli K12, UniProt P08957 1-529; P05719 1-464)", "T1 construct": "M subunit (DNA methyltransferase activity) of the EcoKI type I R/M system of E. coli K12; also called methyltransferase core; copies: 2 + 1", "T1 sequence (looked up) 1": "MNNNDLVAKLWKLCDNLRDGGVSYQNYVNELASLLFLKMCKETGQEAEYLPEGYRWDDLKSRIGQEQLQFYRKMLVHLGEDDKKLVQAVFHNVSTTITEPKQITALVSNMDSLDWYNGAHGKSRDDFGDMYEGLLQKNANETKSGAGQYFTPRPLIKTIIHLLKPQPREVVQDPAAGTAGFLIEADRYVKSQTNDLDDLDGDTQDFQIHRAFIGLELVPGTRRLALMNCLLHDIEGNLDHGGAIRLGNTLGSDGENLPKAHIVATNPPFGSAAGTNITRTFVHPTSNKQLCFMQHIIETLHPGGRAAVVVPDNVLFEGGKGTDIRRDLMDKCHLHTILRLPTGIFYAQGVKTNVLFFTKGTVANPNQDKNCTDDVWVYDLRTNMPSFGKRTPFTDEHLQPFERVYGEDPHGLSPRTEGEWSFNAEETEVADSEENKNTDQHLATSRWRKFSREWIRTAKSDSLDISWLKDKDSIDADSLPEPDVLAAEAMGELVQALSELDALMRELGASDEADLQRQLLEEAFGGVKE", "T1 sequence (looked up) 2": "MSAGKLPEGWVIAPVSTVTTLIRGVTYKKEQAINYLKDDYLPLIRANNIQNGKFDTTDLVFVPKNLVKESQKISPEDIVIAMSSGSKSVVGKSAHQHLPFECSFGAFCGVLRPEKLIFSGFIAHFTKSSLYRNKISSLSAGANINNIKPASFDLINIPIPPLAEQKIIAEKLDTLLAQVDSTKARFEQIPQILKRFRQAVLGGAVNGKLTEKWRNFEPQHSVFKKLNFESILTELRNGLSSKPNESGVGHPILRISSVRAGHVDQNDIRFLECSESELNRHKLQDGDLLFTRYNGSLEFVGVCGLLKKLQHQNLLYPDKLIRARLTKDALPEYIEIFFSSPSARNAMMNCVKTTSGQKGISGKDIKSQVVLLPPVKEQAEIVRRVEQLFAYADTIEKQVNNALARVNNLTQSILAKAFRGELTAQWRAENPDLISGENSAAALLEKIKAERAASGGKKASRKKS", "assay": "ITC; Ocr (typically 40 uM) titrated into M.EcoKI (4 uM); 20 mM Tris-HCl pH 8.0, 6 mM MgCl2, 7 mM 2-mercaptoethanol, 100 uM SAM, with or without 500 mM NaCl; 10 to 30 °C"}, "[2]": {"target": "T1, M.EcoKI, DNA methyltransferase …", "assay": "ITC; as the Tris experiment but 20 mM Hepes in place of Tris-HCl, 25 °C, no NaCl"}, "[3]": {"target": "T1, M.EcoKI, DNA methyltransferase …", "assay": "fluorescence polarisation; competition with DNA: M.EcoKI titrated into 50 nM Ocr and 2 nM of a 21-bp DNA duplex fluorescently labelled at the 5' end; anisotropy of the DNA monitored"}}, "data": [{"binder": "B1", "values": [{"measurement": "dH", "setting": "[1]", "value": -20.6, "unit": "kcal/mol"}, {"measurement": "stoichiometry N", "setting": "[1]", "value": "1 Ocr dimer per molecule of M.EcoKI"}, {"measurement": "dH", "setting": "[2]", "value": -21.5, "unit": "kcal/mol"}, {"measurement": "Kd", "setting": "[3]", "value": 0.044, "unit": "nM"}]}]}
